Target: ACM2 variant of AC fused to GFP (ACM2-GFP), encoded by plasmid pACM2-Gfp (Bordetella pertussis | not stated) (UniProt P0DKX7)
Experiment: two-hybrid

Substance: calmodulin (CaM) with a 6-histidine tag at its N-terminus and a tetra-cysteine tag at its C-terminus, encoded by plasmid pTCam (from UniProt P0DP23 1-149) (natural protein)
- ß gal (Rel. Units): 8 Rel. Units

— publication PMC13334617
